What all share (test): IEDB peptide-MHC binding, purified MHC/competitive/fluorescence; filed as Kd, often an IC50 or EC50 that approximates it; ≥ and ≤ were set here for values at or beyond the usual limits of such assays
Holding throughout (details): source organism: Entamoeba histolytica HM-1:IMSS

In assay [1] the target is HLA-A*66:01.
Assay [2] has as its target HLA-B*51:01.
The target in assay [3] is HLA-A*29:02.
The target in assay [4] is HLA-A*01:01.
In assay [5] the target is HLA-A*03:01.
The target in assay [6] is HLA-A*02:19.
For assay [7], the target named is HLA-B*15:17.
Assay [8] concerns the target HLA-B*15:01.
For assay [9], the target named is HLA-B*58:01.
The target in assay [10] is HLA-B*27:05.
The target of assay [11] is HLA-B*46:01.
In assay [12] the target is HLA-A*30:01.
Assay [13] deals with HLA-A*30:02.
Assay [14] addresses HLA-B*18:01.
The target in assay [15] is HLA-A*11:01.
The target of assay [16] is HLA-B*40:01.
In assay [17] the target is HLA-B*44:02.
The target of assay [18] is HLA-A*02:11.
Assay [19] addresses HLA-B*07:02.
The target of assay [20] is HLA-B*08:01.
In assay [21] the target is HLA-B*14:02.
Assay [22] has as its target HLA-A*02:12.
The target in assay [23] is HLA-A*23:01.
Assay [24] concerns the target HLA-A*24:03.

Broadly, the Kd is a measure of binding affinity in units of concentration. Lower therefore signals higher affinity. Take EVRKAIEFV: the Kd is 0.279 µM in assay [1]; no less than 20 µM in assay [2]; no less than 20 µM in [3]; no less than 5 µM in assay [4]; no less than 20 µM in [5]; no less than 20 µM in [6]. Further, the Kd was no less than 20 µM in [7]; no less than 20 µM in [8]; no less than 5 µM in assay [9]; no less than 5 µM in [10]; no less than 20 µM in assay [11]; no less than 5 µM in [12]. Besides, the Kd in assay [13] was no less than 5 µM; in assay [14], no less than 20 µM; in [15] it was no less than 5 µM; in assay [16], no less than 5 µM; in [17], no less than 5 µM; in assay [18] it was no less than 20 µM. Moreover, the dissociation constant Kd in [19] is no less than 5 µM; in assay [20], no less than 5 µM; in [21], no less than 5 µM; in assay [22], no less than 20 µM; in [23], 1.3 µM; in assay [24] it was no less than 20 µM.
